Biological target: CH848 Env trimer expressed on the cell surface of CHO cells (HIV-1 (clade C, individual CH848, …))
Assay: flow cytometry on CHO cells expressing CH848 Env

B1: DH270.IA4 (antibody, V domains shown)
VH: QVQLVQSGAEVKKPGASVKVSCKASGYTFTDYYIHWVRQAPGQGLEWMGWINPNTGRTNYAQKFQGRVTMTRDTSISTAYMELSRLRSDDTAVYYCARGGWIGLYYDSSGYPNFDYWGQGTLVTVSS
VL: QSALTQPASVSGSPGQSITISCTGTSYDVGSYNLVSWYQQHPGKAPKLMIYEVSKRPSGVSNRFSGSKSGNTASLTISGLQAEDEADYYCCSYAGSSTVIFGGGTKLTVL
notes: also called DH270_I4
B1: no binding (tested: 5 ug/mL).
